Holding throughout (conditions): both partners purified
Test [1] deals with T1, GST-NF1^PPQY (residues 2665-2687) (UniProt P21359-2 2665-2687).
T1 construct: Neurofibromin 1 (NF1), residues 2665-2687, holds the PPQY motif; also called GST-tagged NF1^PPQY; source: purified; not shown: GST, N-terminal, kept
T1 chain (looked up): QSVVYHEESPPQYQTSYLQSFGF
Briefly: pull-down; GST, GST-NF1^PPQY or GST-NF1^AAAA prebound on Glutathione Sepharose beads; increasing amounts of His-Sumo-YAP1^WW1 or His-Sumo-YAP1^WW2 added; 20 mM Tris pH 8.0, 150 mM NaCl, 2 h, 4 °C; eluted with 10 mM GSH; SDS-PAGE, Coomassie blue.

Test [2] deals with T2, YAP1^WW1 (as used in ITC) (UniProt P46937 174-204).
T2 construct: Yes-associated protein 1 (YAP1), first WW domain; the label YAP1^WW1 is defined as residues 174-204 in the pull-down methods; The ITC methods name only YAP1^WW1
Briefly: ITC; 25 °C, PEAQ-ITC; 10 mM NF1^PPQY peptide injected (20 injections of 2 μl) into 1 mM YAP1^WW1 or YAP1^WW2; 10 mM Tris pH 8.0, 100 mM NaCl; one-site binding model. Background: In ITC the heat of successive injections is recorded.

The target in test [3] is T3, YAP1^WW2 (as used in ITC) (UniProt P46937 227-266).
T3 construct: Yes-associated protein 1 (YAP1), second WW domain; the label YAP1^WW2 is defined as residues 227-266 in the pull-down methods; The ITC methods name only YAP1^WW2
The test is described as above.

B1: His-Sumo-YAP1^WW1 (residues 174-204) (domain or fragment, UniProt P46937 174-204, looked up)
chain: PAGWEMAKTSSGQRYFLNHIDQTTTWQDPRK
notes: Yes-associated protein 1 (YAP1), first WW domain, residues 174-204; source: purified; not shown: His, N-terminal, kept; Sumo, N-terminal, kept
B1: the binding result in test [1] was “binds”.

B2: NF1^PPQY peptide (residues 2671-2680: EESPPQYQTS) (peptide)
peptide: EESPPQYQTS
notes: also called NF1 peptides; source: synthetic peptide (Scilight-Peptide, China)
For B2, the Kd in test [2] was 320 µM; in test [3] it was 346 µM.

B3: His-Sumo-YAP1^WW2 (residues 227-266) (domain or fragment, UniProt P46937 227-266, looked up)
chain: SASGPLPDGWEQAMTQDGEIYYINHKNKTTSWLDPRLDPR
notes: Yes-associated protein 1 (YAP1), second WW domain, residues 227-266; source: purified; not shown: His, N-terminal, kept; Sumo, N-terminal, kept
Turning to B3, in test [1], the binding result is listed as “binds”.

A word on the Kd: it is the equilibrium constant for the complex coming apart. Low readings indicate tighter binding, high ones weaker binding.

The values are drawn from article PMC10163693, “The oncogenic role of NF1 in gallbladder cancer through regulation of YAP1 stability by direct interaction with YAP1” (Journal of Translational Medicine, 2023).
